“And” between values parts separate entries of the source, which are not always exact repeats. Identical values can stand only once. “Also recorded” adds a separate entry of the source.

Experimental findings from patent publication US20090233993A1, “COMPOSITIONS AND METHODS FOR INHIBITING GSK3 ACTIVITY AND USES THEREOF” (Burnham Institute for Medical Research, priority 2008, published 2009) are described below.

One experiment has as its system PKC. In words: PKC activity in N2a cell lysates (32P peptide substrate). The settings on record: FG01 overexpression in N2a cells. The class given is cell-based, mouse. The procedure: N2a cells were transfected with pcDNA or FG01. After lysis, cell lysates containing […] of total proteins were incubated with synthesized PKC specific peptide substrate and ^32P-ATP. The ^32P labeled peptides were captured and the radioactivities were quantified by scintillation. The activities of PKC were represented by the normalized radioactivities of the labeled peptide substrates. n=4.

In the next experiment the test system is GSK-3β. In words: GSK-3β in vitro kinase activity after immunoprecipitation from N2aSwe cells. Format: cell-based, mouse. The note with it: in vitro kinase assay, FG01-overexpressing N2aSwe cells vs control. The text has this: (§1) The levels of the recombinant Notch (NotchΔE with Myc-tag) and the γ-secretase cleaved Notch fragment (NICD) were quantified by Western blotting using myc antibody and an antibody specific to processed Notch followed by densitometry. […] The results represent at least four independent experiments.
(§2) Commercial kits were used to assay in vitro activities of GSK-3β (Sigma) and PKA (Upstate). For GSK-3α activity, a commercial GSK-3β activity assay kit was used but the procedure to immunoprecititate GSK-3β was replaced with immunoprecipitation of GSK-3α using an anti-GSK-3α antibody (Cell Signaling). cAMP levels were assayed using a commercial kit (Biovision).

Experiment [1] has as its system GSK-3α/β. In words: phospho-GSK-3α/β Western blot in human HeLaSwe and HEK293 cells. Format: cell-based. An excerpt: (§3) Expression of β-catenin, inactivated phospho-GSK-3β, total GSK-3, APP, β-CTF and FG01 in transfected human HEK293 cells were shown by Western blots.
(§4) Although the possibility that FG01 may modulate substrate specificity or accessibility to γ-secretase can not be excluded, it is equally possible that FG01 regulates other proteins/pathways functioning in APP processing and Aβ generation. […] Thus, the activities of GSK-3α/β were studied in the presence or absence of FG01 overexpression by examining levels of phospho-GSK-3α (Ser 21) and phospho-GSK-3β (Ser 9) (which represent inactivated forms of GSK-3) and by in vitro kinase assays.

Experiment [2] relates to β-catenin. In words: β-catenin level in human HEK293 cells (Western blot). The class given is cell-based. The note with it: FG01 expression.
Description: as §3
(A western blot detects proteins with antibodies after separation by electrophoresis.)

A further experiment relates to Aβ generation. Briefly: Aβ generation / APP processing in HeLaSwe cells expressing FG01 (Western blot, ELISA). The class given is cell-based, human. The procedure: Expression of secreted Aβ, sAPPα, β-CTF, total APP, α-tubulin and FG01 were detected by Western blots.
HeLa/swe cells were transfected with GSK-3β and/or FG01 as indicated. The levels of Aβ40/42 were determined by modified ELISA. The expression of GSK-3β and β-catenin were shown by Western blots. n=4.
HeLaSwe cells were transfected with FG01 or controls. Conditioned media and lysates from these cells were collected. The levels of Aβ40 and Aβ42 were quantified using ELISA kits (Invitrogen), following the manufacturer's protocols.
To corroborate this, FG01 was over expressed in N2aSwe cells.

The subject of experiment [3] is β-catenin. Briefly: β-catenin level in mouse N2a cells (Western blot). Format: cell-based. The note with it: FG01 overexpression. An excerpt: (§5) The levels of total GSK-3 were used as normalization factors.
For another experiment, the system named is cAMP levels. Briefly: cAMP assay in mouse N2a cells. The note with it: FG01 overexpression. The class given is cell-based.
Description: After 48-72 hrs, cells were lysed and cell lysates were subjected to immunoprecipitation with mouse IgG, rabbit IgG, myc antibody and adenylyl cyclase (AC) antibody (Santa Cruz Biotechnology, catalog number sc-1701), and then immunoblotted with antibodies against adenylyl cyclase (AC) and myc, respectively.
as §2

The subject of experiment [4] is GSK-3α/β. In words: phospho-GSK-3α (Ser21)/GSK-3β (Ser9) Western blot in mouse N2a/N2aSwe cells. The class given is cell-based.
Description: The accumulation of βCTF can also be attributed to decrease in γ-secretase cleavage. However, the Notch cleavage was not altered by overexpression of the recombinant FG01 (FIG. 9A). […] Thus, the activities of GSK-3α/β were examined with or without overexpressing FG01. First, the levels of phospho-GSK3α at Ser21 and GSK-3β at Ser9 (the inactivated forms of GSK3) were quantified using the specific antibodies.
as §1, §5, §4

The next experiment relates to PKA. In words: PKA inhibitor H89 treatment of FG01-transfected N2aSwe cells. The note with it: FG01-transfected cells treated with H89. Format: cell-based, mouse. As for the experimental part:
After 48 hr incubation, cell media were changed to Opti-MEM (Invitrogen) containing DMSO or a PKA activity inhibitor H89 (2 μM) and cells were incubated for additional 4 hrs. The cell media were used for Aβ immunoprecipitation-Western blotting and cell lysates were subjected to Western blotting for p-CREB (substrate for PKA) and p-GSK3β. As shown, inhibiting PKA activity with H89 prevented serine phosphorylation of CREB and GSK3β by FG01.
N2aSwe cells were transfected with control vector or FG01 and then equally split. Four hours before collection, cells were treated with the GSK-3 inhibitor lithium chloride (5 mM) or sodium chloride (5 mM, as control). Alternatively, cells were treated with a PKA inhibitor H89 at 10 μM or with DMSO for control.

Setting [5] is: ELISA, HeLaSwe cells, FG01 expression.

B1: FG01: 141 amino acid transmembrane protein encoded by mouse retrogene fg01 (SEQ ID NO:2); expressed from transfected vector or transgene (protein)
chain: MQSQQRNIGYFNHLKADSRNITYSMTFSTKSSNQNFIIFLNEVQAAIIGHERCDLLPVLNELHPDALPDGRIWLFGLNPYFFQHNSLCMRGTPKRIGLQGCAQVGFLVLFVMPLLIPSVTAELPGSSETTTLAHLAGATGP
modifications: Myc and His6 tags; homo sapien
notes: expressed from transfected vector or transgene
For B1, the PKC activity entry with PKC was “increased”. Besides, the “decrease in GSK-3β activity” value with GSK-3β is ~30% and 40%. Also, in the experiment on GSK-3α/β [1] (FG01 expression, human HEK293 cells, Western blot), the “GSK-3 activities (inactivated phospho-GSK-3β)” value is on record as “decreases”. The “phospho-GSK-3α (Ser21) and phospho-GSK-3β (Ser9) levels” value in the experiment with GSK-3α/β [1] (FG01 overexpression, human HeLaSwe and HEK293 cells) was “more highly phosphorylated”. Moreover, in the experiment with β-catenin [2], the “level of β-catenin” value was “increases”. In addition, in the experiment on Aβ generation (setting [5]), the Aβ40 level entry is on record as “significantly reduced” and the Aβ42 level entry is reported as “significantly reduced”. Further, in the experiment on Aβ generation (HeLa/swe cells transfected with GSK-3β and/or FG01, Aβ40/42 ELISA), the “effects of overexpression of GSK-3β on Aβ production” value was “suppressed”. For the same molecule, the “Aβ levels / Aβ generation” value with Aβ generation (mouse FG01 expressed in HeLa cells with APP Swedish mutant) was “decreases; also recorded: reduced Aβ generation”. Moreover, in the experiment with Aβ generation (mouse FG01 in HeLaSwe cells), the “accumulation of sAPPα” value is on record as “increased accumulation” and the “accumulation of βCTF” value is recorded as “increased accumulation”. Moreover, the “level of β-catenin” value in the experiment on β-catenin [3] is listed as “increases”. Besides, the “increase of cAMP levels” value in the experiment with cAMP levels was determined as 38%. For the same molecule, the “GSK-3α/β activity in the presence of lithium” value in the experiment on GSK-3α/β [4] (FG01-transfected N2aSwe cells, 5 mM LiCl 4 hrs) was “could not further reduce”. Besides, in the experiment on GSK-3α/β [4] (FG01 overexpression, mouse N2a cells, Western blot), the “GSK-3 activities (inactivated phospho-GSK-3β)” value is “decreases”. The “phospho-GSK-3α (Ser21) and phospho-GSK-3β (Ser9) levels (inactivated forms)” value in the experiment with GSK-3α/β [4] (FG01 overexpression, mouse N2aSwe cells) is on record as “more GSK-3α/β were phosphorylated; also recorded: more highly phosphorylated”. Further, in the experiment on PKA, the “inhibition of Aβ generation when PKA suppressed by H89” value was “failed to inhibit” and the “inhibition of GSK-3 activity when PKA suppressed by H89” value is given as “failed to inhibit”.
